Data reported in patent US20100129344A1, “MEDICAL USES AND THERAPIES BASED UPON THE ACTION OF AZUROCIDIN ON IGFBP-1” (priority 2005, published 2010).
Marks after values point to notes of the source that are not given here.

Legend:
azurocidin = molecular target: T1, azurocidin (Homo sapiens, UniProt P20160); assay: Stability of IGFBP-1 fragments generated in the presence of azurocidin; format: biochemical
T1 construct: from tissue
T1 sequence (P20160 27-248): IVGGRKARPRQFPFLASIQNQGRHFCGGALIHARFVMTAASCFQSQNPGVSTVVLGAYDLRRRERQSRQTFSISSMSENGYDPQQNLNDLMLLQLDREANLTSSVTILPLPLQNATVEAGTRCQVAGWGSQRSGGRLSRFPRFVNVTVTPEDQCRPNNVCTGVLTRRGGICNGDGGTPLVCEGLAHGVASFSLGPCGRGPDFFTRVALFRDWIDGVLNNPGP

[1] = tested on: MCF-7 human breast cancer cells; assay: 3H-Thymidine incorporation; format: cell-based
Procedure: Cell studies. MCF-7 human breast cancer cells were maintained in MEM alpha ribonucleic acid-free medium supplemented with 10% foetal bovine serum, 50 Unit/ml penicillin sodium, 50 μg/ml streptomycin sulfate and 2 mM L-glutamine at 37C in 5% CO2 humidified environment.
3H-Thymidine incorporation: Experiments were carried out in 48-well plates, at 70% confluence. After a 20-h incubation in serum-free medium supplemented with 0.1% BSA, the experimental conditions were added for a further 24 h, with ^3H-thymidine (1 μCi/ml) added for the last 4 h. Cells were then washed with ice-cold 0.9% NaCl three times and incubated with ice-cold 5% TCA for 15 min at 22 C. The fixed nucleotides were solubilized in 0.1M NaOH at 22 C and subjected to liquid scintillation counting.
(§1) Statistical analyses. The effect of IGF-II and IGFBP-1 in muscle cell culture was analyzed by two-way ANOVA. Where significant differences were observed, comparisons were made using the Tukey test. In the study using MCF-7 breast cancer cells the Wolcoxon Matched Pairs test was used. Statistical significance was set at P<0.05.

des(1-3)IGF-I = molecular target: T2, des(1-3)IGF-I (Homo sapiens, UniProt P05019); assay: BIAcore analysis over des(1-3)IGF-I biosensor surface; format: binding; details: 200 nM, 2-h and 4-h incubations with partially purified azurocidin
T2 construct: IGF-I, IGF-II and des(1-3)IGF-I were immobilized on the sensor chip by amine coupling; purchased GroPep (Adelaide, Australia)
T2 sequence (P05019 52-118): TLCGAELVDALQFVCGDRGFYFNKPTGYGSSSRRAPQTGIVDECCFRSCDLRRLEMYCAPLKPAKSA
Procedure: Recombinant pIGFBP-1 was analyzed across a des(1-3) IGF-I biosensor surfaces with a concentration range of 50, 100, 200, 400 nM, at a flow rate of 10 μl/min. The mean sensorgrams are shown for 400 nM IGFBP-1 (intact, n=3) and 200 nM IGFBP-1, intact (0 h, n=4) and after 2-h (n=5) and 4-h (n=3) incubations with partially purified azurocidin in a protease:substrate ratio of 1:3 500 for 2 h at 37 C.
(§2) Instrument and reagents (buffers, chemicals for activating and deactivated) were purchased from BIAcore (Uppsala, Sweden). IGF-I, IGF-II and des(1-3)IGF-I were immobilized on the sensor chip by amine coupling and deactivated with 0.1M ethanolamine. A reference flow cell was also prepared to correct for background and bulk refractive index contribution. After equilibration buffer to achieve a stable baseline, binding experiments was at 22 C in 2 separate experiments with the samples injected in random order. 40 μl of each sample was injected over the sensor surface at a rate of 10 μl/min (association period), followed by a 6 min wash with buffer (dissociation period). The sensor surface was regenerated with 20 μl of 100 mM HCl and washed for 6 min before the next sample. We used a 1:1 Langmuir binding interaction model for kinetic analysis using the BIAcore software and GraphPad Prism (GraphPad Software Inc, San Diego, Calif.).

IGF-II = IGF-II (Homo sapiens, UniProt P01344); assay: BIAcore analysis over IGF-II biosensor surface; format: binding; parameters: IGF-I, IGF-II and des(1-3)IGF-I were immobilized on the sensor chip by amine coupling; details: for kd (rate of dissociation, over 261-360 s) / ks (rate of association, over 21-120 s): mean ± SEM
Sequence of IGF-II (P01344 25-91 limits assumed): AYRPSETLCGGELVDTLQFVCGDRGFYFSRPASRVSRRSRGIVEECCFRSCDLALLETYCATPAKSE
Procedure: (§3) Recombinant pIGFBP-1 was analyzed across IGF-I (A, C) and IGF-II (B, D) biosensor surfaces. A concentration range of 50, 100, 200, 400 nM was analyzed at a flow rate of 10 μl/min. A,B: Mean sensorgrams for 400 nM IGFBP-1 (intact, n=3) and 200 nM IGFBP-1, intact (0 h, n=4) and after 2-h (n=5) and 4-h (n=3) incubations with partially purified azurocidin in a protease:substrate ratio of 1:3 500 for 2 h at 37 C. C,D: The rate of association (ks), the absolute value of the slope (dRU/dt versus RU) over the linear initial association phase (21-120 s), is shown for pIGFBP-1, intact (closed circles), and after incubation with partially purified azurocidin for 2 h at 37 C (open circles); and
as §2

IGF-I [2] = molecular target: T3, IGF-I (Homo sapiens, UniProt P05019); assay: BIAcore analysis over IGF-I biosensor surface; format: binding; parameters: purchased Kabi Pharmacia (Sweden), donated; details: for kd (rate of dissociation, over 261-360 s) / ks (rate of association, over 21-120 s): mean ± SEM; for predicted maximum response for interaction with IGF-I: based on initial rate of association (21-120 s), proteolysed = 2-h time point
Procedure: as §3, §2
Target sequence in this assay (P05019 49-118 limits assumed): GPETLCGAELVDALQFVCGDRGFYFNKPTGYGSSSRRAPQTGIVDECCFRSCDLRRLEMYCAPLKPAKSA

[3] = tested on: primary human skeletal myotubes; assay: 2-Deoxyglucose transport (glucose uptake); format: cell-based; details: for effect on glucose uptake alone: absence of exogenous IGF-II, 80 ng/ml
Procedure: Primary human skeletal myotubes were incubated under serum-free conditions for 24 h. Glucose uptake was determined as described in the Methods. The results are the mean±SEM of four experiments using cells from different individuals each with 3 replicates; and are expressed as the percentage of uptake in the absence of IGF-II or IGFBP-1 for each. The effect of IGF-II is shown in the hatched bars. The effect of pIGFBP-1 on stimulation of glucose uptake by 10 ng/ml IGF-II was analyzed by 2-way ANOVA for each of the 20 ng/ml and 80 ng/ml concentrations; *, P<0.01, **, P<0.001, compared to no IGF-II; ††, P<0.001, compared to no IGFBP-1 or intact IGFBP-1.
Human skeletal muscle cells were isolated, with approval from the local Ethics Committee, from the muscle biopsies by trypsin digestion and were grown to confluent myoblasts and differentiated into myotubes as previously described in detail (Bouzakri et al, Diabetes, 52, 1319-1325, 2003). Muscle from 4 different subjects were individually minced before being incubated for 30 min in 5 ml of trypsin-EDTA (Invitrogen, Carlsbad, Calif.) at 37° C. under agitation. After being centrifuged (150 g), the pellet was rinsed several times in PBS. Cells were first preplated for 1 h to eliminate rapidly adherent fibroblasts. The remaining cells were then cultured in a growth medium composed of HAM F-10 supplemented with 20% fetal bovine serum (FBS; Invitrogen Stockholm, Sweden), and 1% antibiotics (Invitrogen Stockholm, Sweden). Cells were plated in 6 wells plates and cultured in growth medium at 37° C. until confluence. Differentiation into myotubes was induced by changing the medium to Dulbecco's modified Eagle's medium supplemented with 2% FBS, and 1% antibiotics.
2-Deoxyglucose transport: Glucose uptake was performed as previously described for primary human muscle cells (Bouzakri et al, Diabetologia, 47, 1314-1323, 2004). After 24-h serum starvation, myotubes were pre-incubated with or without IGF-II (10 ng/ml) and IGF-II+IGFBP-1 (intact or cleaved at 20 or 80 ng/ml) for 90 min. IGF-II and IGFBP-1 were mixed 30 min before the experiments. Cells were then washed four times with pre-warmed buffer (150 mmol/l NaCl, […] KCl, 1.2 mmol/l MgSO4, 1.2 mmol/l CaCL2, 2.5 mmol/l NaH2PO4, 10 mmol/l HEPES, pH 7.4) and glucose uptake was measured for 15 min using [3H]2-deoxyglucose (50 μmol/l, 14,800 Bq/well). Results were expressed as the percentage of glucose uptake in the absence of IGF-II or IGFBP-1.
as §1

IGF-I [4] = molecular target: T3, IGF-I; details: liver-secreted phosphoprotein, after dephosphorylation; cited from earlier work
Target sequence in this assay (P05019 49-118): as the sequence (P05019 49-118 limits assumed) above

[5] = IGFBP-1 200 nM, proteolysis 2 h
[6] = IGFBP-1 200 nM, proteolysis 2 h by azurocidin
[7] = IGFBP-1 200 nM, proteolysis 4 h
[8] = IGFBP-1 200 nM, proteolysis 4 h by azurocidin
[9] = IGF-I surface, IGFBP-1 200 nM, proteolysis 2 h by azurocidin
[10] = IGF-I surface, IGFBP-1 200 nM, proteolysis 4 h by azurocidin
[11] = IGF-II 10 ng/ml + IGFBP-1 20 or 80 ng/ml
[12] = IGFBP-1 200 nM, proteolysis 0 h
[13] = IGFBP-1 400 nM, proteolysis 0 h
[14] = IGF-I surface, IGFBP-1 200 nM, proteolysis 0 h
[15] = IGF-I surface, IGFBP-1 400 nM, proteolysis 0 h

B1: proteolysed IGFBP-1: phosphorylated IGFBP-1 after incubation with partially purified azurocidin (mixture of N- and C-terminal fragments) (protein)
chain 1: APWQCAPCSAEKLALCPPVSASCSEVTRSAGCGCCPMCALPLGAACGVATARCARGLSCRALPGEQQPLHALTRGQGACVQESDASAPHAAEAGSPESPESTEITEEELLDNFHLMAPSEEDHSILWDAI
chain 2: STYDGSKALHVTNIKKWKEPCRIELYRVVESLAKAQETSGEEISKFYLPNCNKNGFYHSRQCETSMDGEAGLCWCVYPWNGKRIPGSPEIRGDPNCQIYFNVQN
azurocidin; 2-h incubation at 45 C
  further degradation of IGFBP-1 fragments: no further degradation
azurocidin; 24-h incubation at 37 C
  further degradation of IGFBP-1 fragments: no further degradation
[1]; IGF-II 10 ng/ml + pIGFBP-1 90 ng/ml, 6 experiments
  IGF-II-stimulated 3H-thymidine incorporation after addition of IGFBP-1: no inhibition
des(1-3)IGF-I
  effect of proteolysis on rate of dissociation from des(1-3)IGF-I: clearly increase
IGF-II; [5]
  kd rel to IGF-I: 2.51^‡
  ks rel to IGF-I: 0.89
IGF-II; [6]
  kd (rate of dissociation, over 261-360 s): 15.99 ± 0.19 ×10^−4 s^−1
  ks (rate of association, over 21-120 s): 15.43 ± 0.58 ×10^−3 s^−1
IGF-II; [7]
  kd rel to IGF-I: 2.39^‡
  ks rel to IGF-I: 1.01
  rel ks (relative to 200 nM intact pIGFBP-1): 2.86*^†
IGF-II; [8]
  kd (rate of dissociation, over 261-360 s): 27.17 ± 0.12 ×10^−4 s^−1
  ks (rate of association, over 21-120 s): 12.80 ± 0.08 ×10^−3 s^−1
IGF-I [2]; [9]
  kd (rate of dissociation, over 261-360 s): 6.40 ± 0.25 ×10^−4 s^−1
  ks (rate of association, over 21-120 s): 17.26 ± 0.49 ×10^−3 s^−1
IGF-I [2]; IGF-I surface, IGFBP-1 200 nM, proteolysis 4 h
  rel ks (relative to 200 nM intact pIGFBP-1): 2.96*^†
IGF-I [2]; [10]
  kd (rate of dissociation, over 261-360 s): 11.36 ± 0.05 ×10^−4 s^−1
  ks (rate of association, over 21-120 s): 12.69 ± 0.08 ×10^−3 s^−1
IGF-I [2]
  predicted maximum response for interaction with IGF-I: 1156±16 RU
[3]; [11]
  effect on IGF-II-stimulated glucose uptake: inhibited in a dose-response manner
[3]; IGF-II 10 ng/ml + IGFBP-1 20 or 80 ng/ml, P<0.001
  inhibitory effect on IGF-II-stimulated glucose uptake compared with intact IGFBP-1: significantly less
[3]
  effect on glucose uptake alone: stimulated glucose uptake

B2: intact pIGFBP-1: recombinant human phosphorylated IGFBP-1, intact (protein)
chain: APWQCAPCSAEKLALCPPVSASCSEVTRSAGCGCCPMCALPLGAACGVATARCARGLSCRALPGEQQPLHALTRGQGACVQESDASAPHAAEAGSPESPESTEITEEELLDNFHLMAPSEEDHSILWDAISTYDGSKALHVTNIKKWKEPCRIELYRVVESLAKAQETSGEEISKFYLPNCNKNGFYHSRQCETSMDGEAGLCWCVYPWNGKRIPGSPEIRGDPNCQIYFNVQN
[1]; without IGF-II, 4 experiments
  inhibition of 3H-thymidine incorporation by pIGFBP-1 alone: 13-33%
IGF-I [4]
  reduction of affinity for IGF-I by dephosphorylation: six fold
IGF-II; [12]
  kd (rate of dissociation, over 261-360 s): 3.48 ± 0.40 ×10^−4 s^−1
  ks (rate of association, over 21-120 s): 4.47 ± 0.78 ×10^−3 s^−1
IGF-II; [13]
  kd (rate of dissociation, over 261-360 s): 3.37 ± 0.02 ×10^−4 s^−1
  ks (rate of association, over 21-120 s): 8.30 ± 0.13 ×10^−3 s^−1
IGF-I [2]; [14]
  kd (rate of dissociation, over 261-360 s): 1.46 ± 0.19 ×10^−4 s^−1
  ks (rate of association, over 21-120 s): 4.29 ± 0.46 ×10^−3 s^−1
IGF-I [2]; [15]
  kd (rate of dissociation, over 261-360 s): 1.45 ± 0.02 ×10^−4 s^−1
  ks (rate of association, over 21-120 s): 8.21 ± 0.14 ×10^−3 s^−1
IGF-I [2]
  predicted maximum response for interaction with IGF-I: 908±79 RU
[3]; [11]
  effect on IGF-II-stimulated glucose uptake: inhibited in a dose-response manner
[3]
  effect on glucose uptake alone: no effect
